What was measured:
Settings in all cases: apparent, 10 μM FAD, 1 mM NADH, 500 nM HpaC, 20 mM KPi pH 7.0, 30 °C
O=C(O)/C=C/c1ccc(O)cc1 [1] = experiment: HPLC of product and substrate; Michaelis-Menten fit; format: biochemical, Escherichia coli
From the text: (§1) HPLC of product and substrate; Michaelis-Menten fit on EcHpaB

O=C(O)/C=C/c1ccc(O)cc1 [2] = experiment: purified protein; format: biochemical, Escherichia coli
From the text: as §1

O=C(O)/C=C/c1ccc(O)cc1 [3] = experiment: purified protein; format: biochemical, Escherichia coli; remark: listed apart in the source
O=c1ccc2ccc(O)cc2o1 = experiment: purified protein
purified protein [4] = substrate: O=C1C[C@@H](c2ccc(O)cc2)Oc2cc(O)cc(O)c21; experiment: purified protein
purified protein [5] = substrate: O=c1ccc2ccc(O)cc2o1; experiment: purified protein; remark: listed apart in the source
purified protein [6] = substrate: Oc1ccc(/C=C/c2cc(O)cc(O)c2)cc1; experiment: purified protein
[7] = substrate: O=C(O)/C=C/c1ccc(O)cc1; experiment: HPLC of product and substrate; Michaelis-Menten fit; format: biochemical, Escherichia coli; remark: listed apart in the source

**Q.** Which results are given for “EcHpaB (Escherichia coli; E216M/G215A/N217V)”?
**A.** Km (O=C(O)/C=C/c1ccc(O)cc1 [1]): 235.6 ± 40.2 µM; kcat (O=C(O)/C=C/c1ccc(O)cc1 [1]): 0.497 ± 0.0217 s⁻¹; kcat/Km (O=C(O)/C=C/c1ccc(O)cc1 [1]): 2100 M⁻¹ s⁻¹

**Q.** “EcHpaB (Escherichia coli; A211D/E216M/F208A/G207M/G209M/G215A/N217V/S210V)” was tested. Which Km (O=C(O)/C=C/c1ccc(O)cc1 [2]) did it give?
**A.** 210.8 ± 85.3 µM

**Q.** What about the kcat (O=C(O)/C=C/c1ccc(O)cc1 [2]) of the same molecule?
**A.** 0.512 ± 0.0617 s⁻¹

**Q.** What about the kcat/Km (O=C(O)/C=C/c1ccc(O)cc1 [2]) of the same molecule?
**A.** 2400 M⁻¹ s⁻¹

**Q.** “EcHpaB (Escherichia coli; A211D/F208A/G207M/G209M/S210V)” was tested. Which Km (O=C(O)/C=C/c1ccc(O)cc1 [3]) did it give?
**A.** 387.9 ± 32.7 µM

**Q.** And the kcat (O=C(O)/C=C/c1ccc(O)cc1 [3])?
**A.** 0.183 ± 0.00667 s⁻¹

**Q.** And the kcat/Km (O=C(O)/C=C/c1ccc(O)cc1 [3])?
**A.** 470 M⁻¹ s⁻¹

**Q.** Which results are given for “EcHpaB (Escherichia coli; A211D/E216M/F208A/G207M/G209M/G215A/M214G/N217V/Q212G/S210V/V213S)”?
**A.** Km (O=C(O)/C=C/c1ccc(O)cc1 [1]): 235.3 ± 52.5 µM; kcat (O=C(O)/C=C/c1ccc(O)cc1 [1]): 0.375 ± 0.0217 s⁻¹; kcat/Km (O=C(O)/C=C/c1ccc(O)cc1 [1]): 1560 M⁻¹ s⁻¹

**Q.** Which Km (O=c1ccc2ccc(O)cc2o1) does the source give for “EcHpaB (Escherichia coli; A211D/E216S/F208S/M214S/N217D/Q212L/V213G)” here?
**A.** 176.9 ± 35.9 µM

**Q.** And the kcat (O=c1ccc2ccc(O)cc2o1)?
**A.** 0.348 s⁻¹

**Q.** What about the kcat/Km (O=c1ccc2ccc(O)cc2o1) of the same molecule?
**A.** 2000 M⁻¹ s⁻¹

**Q.** And the Km (O=C(O)/C=C/c1ccc(O)cc1 [3])?
**A.** 132.1 ± 29.1 µM

**Q.** And the kcat (O=C(O)/C=C/c1ccc(O)cc1 [3])?
**A.** 0.365 ± 0.0167 s⁻¹

**Q.** And the kcat/Km (O=C(O)/C=C/c1ccc(O)cc1 [3])?
**A.** 2800 M⁻¹ s⁻¹

B1: EcHpaB (Escherichia coli) (protein)
chain: MKPEDFRASTQRPFTGEEYLKSLQDGREIYIYGERVKDVTTHPAFRNAAASVAQLYDALHKPEMQDSLCWNTDTGSGGYTHKFFRVAKSADDLRHERDAIAEWSRLSYGWMGRTPDYKAAFGCALGGTPGFYGQFEQNARNWYTRIQETGLYFNHAIVNPPIDRHLPTDKVKDVYIKLEKETDAGIIVSGAKVVATNSALTHYNMIGFGSAQVMGENPDFALMFVAPMDADGVKLISRASYEMVAGATGSPYDYPLSSRFDENDAILVMDNVLIPWENVLLYRDFDRCRRWTMEGGFARMYPLQACVRLAVKLDFITALLKKSLECTGTLEFRGVQADLGEVVAWRNTFWALSDSMCSEATPWVNGAYLPDHAALQTYRVLAPMAYAKIKNIIERNVTSGLIYLPSSARDLNNPQIDQYLAKYVRGSNGMDHVQRIKILKLMWDAIGSEFGGRHELYEINYSGSQDEIRLQCLRQAQSSGNMDKMMAMVDRCLSEYDQNGWTVPHLHNNDDINMLDKLLK
notes: (α2)2 tetramer; expressed in E. coli BW25113 (F') from pZE12-luc, purified; assayed with separate purified HpaC reductase
**Q.** For B1, which Km (purified protein [4]) is on record?
**A.** 349.8 ± 77.6 µM

**Q.** And the kcat (purified protein [4])?
**A.** 0.15 s⁻¹

**Q.** And the kcat/Km (purified protein [4])?
**A.** 400 M⁻¹ s⁻¹

**Q.** And the Km (purified protein [5])?
**A.** 217.0 ± 60.6 µM

**Q.** And the kcat (purified protein [5])?
**A.** 0.418 s⁻¹

**Q.** What about the kcat/Km (purified protein [5]) of the same molecule?
**A.** 1900 M⁻¹ s⁻¹

**Q.** And the Km (purified protein [6])?
**A.** 174.3 ± 17.9 µM

**Q.** What about the kcat (purified protein [6]) of the same molecule?
**A.** 0.437 s⁻¹

**Q.** And the kcat/Km (purified protein [6])?
**A.** 2500 M⁻¹ s⁻¹

**Q.** What about the Km [7] of the same molecule?
**A.** 137.6 ± 21.0 µM

**Q.** What about the kcat [7] of the same molecule?
**A.** 0.387 ± 0.0117 s⁻¹

**Q.** What about the kcat/Km [7] of the same molecule?
**A.** 2800 M⁻¹ s⁻¹

Source: paper PMC6506529, “Structural Insights into Catalytic Versatility of the Flavin-dependent Hydroxylase (HpaB) from Escherichia coli” (Scientific Reports, 2019)
